Data from US20260258115A1 (MAPP BIOPHARMACEUTICAL, published 2026).

Columns and labels:
[1] = target: T1, RSV postfusion F (postF), subtype A (respiratory syncytial virus subtype A, UniProt P03420 26-513); experiment: BLI
T1 construct: also called Postfusion subtype A; F deltaFP

[2] = target: T2, RSV prefusion F (preF), subtype B (respiratory syncytial virus subtype B); experiment: BLI, IgG
T2 construct: also called Prefusion subtype B

[3] = target: RSV F on RSV subtype B virus (mKate-RSV B 18537) (respiratory syncytial virus B 18537, UniProt P13843 26-574); experiment: cell-based or functional assay
[4] = target: RSV F on RSV subtype A virus (mKate-RSV A2) (respiratory syncytial virus A2, UniProt P03420 26-574); experiment: cell-based or functional assay
RSV F on RSV-A2 virus = RSV F on RSV-A2 virus (Respiratory Syncytial Virus (RSV-A2), UniProt P03420 26-574); experiment: cell-based or functional assay

| Binder | binding result [1] | Kd [2] | Neut IC50 subtype B [3] | Neut IC50 subtype A [4] | Neutralization IC50 (RSV subtype A) (RSV F on RSV-A2 virus) |
| --- | --- | --- | --- | --- | --- |
| ADI-14349 (antibody, V domains shown, full-length IgG; also called Ab 17) VH: EVQLVESGAEVKKPGSSVKVSCKASGGTLSSYAFSWVRQAPGQGLEWMGGVIPISATSDYAQKFQGRVTITADESTSTVYMELRSLRSEDTAVYYCARDTRYSSGWFYDYWGQGTLVTVSS VL: not shown | no binding | 4.07 nM | 1.84 µg/mL |  |  |
| ADI-19428 (antibody, V domains shown, full-length IgG) VH: EVQLLESGGGLVKPGGSLRLSCAASGFTFSSYSMNWVRQAPGKGLEWVSSISSSSSYIYYADSVKGRFTISRDNAKNSLYLQMNSLRAEDTAVYYCARDSCSGGSCYSPRFDPWGQGTLVTVSS VL: QSVLTQPPSVSGAPGQRVTISCTGSSSNIGAGYDVHWYQQLPGTAPKLLIYGNSNRPSGVPDRFSGSKSGTSASLAITGLQAEDEADYYCQSYDSTVVFGGGTKLTVL | no binding | 16.7 nM |  | 3.25 µg/mL |  |
| ADI-19433 (antibody, V domains shown, full-length IgG) VH: EVQLVESGGGLVKPGGSLRLSCAASGFTFSSYSMNWVRQAPGKGLEWVSSISSSSSYIYYADSVKGRFTISRDNAKNSLYLQMNSLRAEDTAVYYCARAPPSVGGWYFDLWGRGTLVTVSS VL: QPVLTQPPSVSGAPGQRVTISCTGSSSNIGAGYDVHWYQQLPGTAPKLLIYGNSNRPSGVPDRFSGSKSGTSASLAITGLQAEDEADYYCQSYDSSLVFGGGTKLTVL | no binding |  |  | 1.56 µg/mL |  |
| ADI-14378 (antibody, V domains shown, full-length IgG; also called Ab 46) VH: QVQLVESGGGLVQPGGSLRLSCAASGFTFSSYWMHWVRQAPGKGLVWVSRINSDGSSPTYADSVKGRFTISRDNAKNTVFLQMNSLRAEDTAVYYCARESWELIRGDAFDIWGQGTTVTVSS VL: DIQMTQSPSSLSASVGDRVTITCRASQSISSSLNWYQQKPGKAPNLLIYAASTLQSGVPSRFSGSGSGTDFTLTISSLQPEDFATYYCQQSYRTPRTFGQGTKVEIK |  | 6.1 nM | 21.6 µg/mL |  |  |
| ADI-14374 (antibody, V domains shown, full-length IgG; also called Ab 42) VH: QVQLVQSGGVVVQPGGSLRLSCAASGFNFDDFTMHWVRQAPGKGLEWVSLITWDGGITYYADSVKGRFTISRDNGKNSLYLRMNSLRTEDTALYYCAKDGDRYSGYAFLDYWGQGTLVTVSS VL: SYELTQPPSVSVAPGKTARLTCGGNNIGSESVHWYQQRPGQAPVLVSYYNGDRPSGIAERISASKSGNTATLTIYRVEAGDEADYYCQVWHSSSDHFVFGTGTQLTVL |  | 2.09 nM | 0.86 µg/mL |  |  |
| ADI-19432 (antibody, V domains shown, full-length IgG) VH: QVQLVQSGAEVKKPGASVKVSCKVSGYTLTELSMHWVRQAPGKGLEWMGGFDPEDGETIYAQKFQGRVTMTEDTSTDTAYMELSSLRSEDTAVYYCATEREEGGYSGYDDAFDIWGQGTMVTVSS VL: not shown | no binding |  |  | 11 µg/mL |  |
| ADI-24799 (antibody, V domains shown, full-length IgG) VH: EVQLVESGGGLVKPGGSLRLSCAASGFTFSSYSMNWVRQAPGKGLEWVSSISSSSSYIYYADSVKGRFTISRDNAKNSLYLQMNSLRAEDTAVYYCAREGRDGYNYYFDYWGQGTLVTVSS VL: QSVLTQPPSVSGAPGQRVTISCTGSSSNIGAGYDVHWYQQLPGTAPKLLIYGNSNRPSGVPDRFSGSKSGTSASLAITGLQAEDEADYYCQSYDSSLSGSVFGGGTKLTVL | no binding | 19 nM |  | 11.5 µg/mL |  |
| ADI-43643 (antibody, V domains shown) VH: QVQLVQSGGGLVKPGGSLRLSCAASGFTFSSYSMNWVRQAPGKGLEWVSSISSSSSYIYYADSVKGRFTISRDNAKNSLYLQMNSLRAEDTAVYYCARVLSGYSYGYDYWGQGTLVTVSS VL: QSVLTQPPSVSGAPGQRVTISCTGSSSNIGAGYDVHWYQQLPGTAPKLLIYGNSNRPSGVPDRFSGSKSGTSASLAITGLQAEDEADYYCQSYDSSLSGSVFGTGTKVTVL |  |  |  |  | > 25 µg/mL |
| ADI-41519 (antibody, V domains shown) VH: QVQLVESGPGLVKPSETLSLTCNVSGGSIITSGSYWGWIRQPPGKGLTWIGSISYSGTTYYNPSLRSRLTISLDTSRNHFSLQLTSVSAADTAVYYCARAFYEVWTGSEIPGDFDRWGQGTLVTVSS VL: EIVLTQSPGTLSLSPGERATLSCRASQSVSSSYLAWYQQKPGQAPRLLIYGASSRAIDIPDRFSGSGSGTDFTLTISRLEPEDFAVYYCQQFRRSPWTFGQGTKVDIK |  |  |  |  | > 25 µg/mL |
| ADI-14388 (antibody, V domains shown, full-length IgG; also called Ab 55) VH: EVQLVESGGGVVQPGRSLRLSCAASGFTFSSYPMHWVRQAPGKGLEWVAVISYDGSNKYYADSVKGRFTISRDNSKNTLYLQMNSLRAEDTAVYSCARAQSAAIFDHWGQGTLVTVSS VL: QAVVTQEPSLTVSPGGTVTLTCASSTGAVTSGYYPNWFQQKPGQAPRALIYTTSKRHSWTPARFSGSLLGGKAALTLSGVQPEDEADYYCLLYYGGANWVFGGGTKLTVL | no binding | 5.5 nM | 3.07 µg/mL |  |  |
| ADI-14377 (antibody, V domains shown, full-length IgG; also called Ab 45) VH: EVQLVESGGGVVQPGGSLRLSCAVSGITFSSYGMHWVRQAPGKGLEWVAFIRYDGSNKYYGDSLRGRFTISRDNSKNTLYLQMNSLRAEDTAVYYCAKDAVGIGGYYGLDVWGQGTTVTVSS VL: DIQMTQSPSSLSASVGDRVTITCRASQGIRNDLGWYQQKPGKAPKRLIYAASSLQSGVPSRFSGSGSGTEFTLTISSLQPEDFATYYCLQHNGYPWTFGQGTKVEIK | no binding | 5.28 nM | 2.13 µg/mL |  |  |
| ADI-19448 (antibody, V domains shown, full-length IgG) VH: EVQLLESGGGLVKPGGSLRLSCAASGFTFSSYSMNWVRQAPGKGLEWVSSISSSSSYIYYADSVKGRFTISRDNAKNSLYLQMNSLRAEDTAVYYCARELLDPGIAAAGFDYWGQGTLVTVSS VL: QSVLTQPPSVSGAPGQRVTISCTGSSSNIGAGYDVHWYQQLPGTAPKLLIYGNSNRPSGVPDRFSGSKSGTSASLAITGLQAEDEADYYCQSYDSSLSVNYVFGTGTKVTVL | no binding | 5.58 nM |  | 9.64 µg/mL |  |
| ADI-19494 (antibody, V domains shown, full-length IgG) VH: QVQLVQSGAEVKKPGSSVKVSCKASGGTFSSYVISWVRQAPGQGLEWMGGIIPIFGTTYYAQKFQDRVTITTDESTSTAYMELSSLRSEDTAVYYCARDLRYRYNAYDGADAFDIWGQGTTVTVSS VL: QSALTQPASVSGSPGQSITISCTGTSSDVGGYNYVSWYQQHPGKAPKLMIFEVSNRPSGVSNRFSGSKSGNTASLTISGLQAEDEADYYCTSYTKSNSVVFGGGTKLTVL | no binding |  |  | 0.86 µg/mL |  |
| ADI-41542 (antibody, V domains shown) VH: EVQLVESGVAVKKPGESLKISCKGSGYNFDSFWIGWVRQLPGKGLEWMGIIFPGDSDTRYGPSFQGQVTISADKSINTAYLQWRSLKASDTAMYYCARHGLGGYDNSGYNLWGHGTMVTVSS VL: DIVMTQSPSSLSASVGDRVTITCQASHDISTSLNWYQQKPGKAPNLLISDASTLERGVPSRFSGGGSGTEFTFTISSLQPEDIATYYCQQFENLPITFGQGTRLEIK |  |  |  |  | 0.69 µg/mL |
| ADI-19487 (antibody, V domains shown) VH: QVTLKESGPALVKPTQTLTLTCTFSGLSISTSGMCVSWIRQPPGKALEWLARIDWDDDKYYSTSLKTRLTISKDTSKNQVVLTMTNMDPVDTATYYCARINYYDSSGYYVYYFDYWGQGTLVTVSS VL: not shown |  |  | 7.96 µg/mL |  |  |
| ADI-41520 (antibody, V domains shown) VH: EVQLLESGGGVVRPGGSLRLSCAASGFSFDDYGMTWVRQAPGKGLEWVSGINWNGISTDYADSVKGRFTISRDNAKNSVYLQMNSLRAEDTALYYCARIGGVVVIASTAYYYGMDVWGQGTTVTVSS VL: DIQLTQSPSSLSAYVGDRVTITCRASQSIRNHLNWYQQKPGKAPQLLIYTASSLQDGVPSRFSGSGSGTDFTLAISSLQPEDFATYYCQQSHSMPPTFGQGTRLEIK |  |  |  |  | > 25 µg/mL |
| ADI-14370 (antibody, V domains shown, full-length IgG; also called Ab 38) VH: EVQLVESGGGVVQPGKSLRLSCAASGFSFSTFAMHWVRQAPGKGLEWVAVISYDGSNKFYADSVKGRFTISRDSSKNTLYLQMNSLRAEDTAVYYCARGGYSSGWYVTHFDYWGQGTLVTVSS VL: QSVLTQPPSASGSPGQSVTISCTGTSSDVGGYNYVSWYQQHPGKAPKLMIYEVSKRPSGVPDRFSGSKSGNTASLTVSGLQAEDEADYYCSSYAGSNNLYVFGTGTKLTVL |  | 4.18 nM | 1.38 µg/mL |  |  |
| ADI-41522 (antibody, V domains shown) VH: QVQLVQSGAEVKKPGSSVKVSCKASGGTFNNFPISWVRQAPGQGLEWMGGIIPMFGRANYAQKFQGRVTITADESTTTVYMALRSLRSEDTAVYYCARPDYDVLTGFEGAFDIWGQGTMVTVSS VL: QSALTQPASVSGSPGQLITISCTGTSRDVGGYNYVSWYQQHPGKAPKLMIYDVTNRPSGVSNRFSGSKSGNTASLTISGLQSEDEADYYCSSYTSTTTWVFGGGTKLTVL |  |  |  |  | > 25 µg/mL |
| ADI-14391 (antibody, V domains shown, full-length IgG; also called Ab 58) VH: QVQLVESGGGLVQPGGSLRLSCAAAGFSFSNYAMSWVRQAPGKGLEWVAVISGNAGSTYYAESVKGRFTISRDNSKNTLHLQMNSLRGEDTAVYYCAKPPGIAVAGEYYWYFDLWGRGTLVTVSS VL: QVQLMQPPSVSVSPGQTARITCSGDALPRENAYWYQQKSGQAPVLVIYEDSKRPSGIPERFSGSSSGTMATLTITGAQVEDEADYYCYSTDTSAYHWVFGGGTKLTVL | no binding | 5.36 nM | 22.2 µg/mL |  |  |
| ADI-19488 (antibody, V domains shown, full-length IgG; also called Ab 190) VH: QVQLVQSGAEVKKPGASVKVSCKVSGYTLTELSMHWVRQAPGKGLEWMGGFDPEDGETIYAQKFQGRVTMTEDTSTDTAYMELSSLRSEDTAVYYCATARFLEWLSGTNWFDPWGQGTLVTVSS VL: not shown | no binding | 10.7 nM | 3.38 µg/mL |  |  |
